Measurements reported in the RNAGym collection of RNA variant scans (doi:10.1073/pnas.2313332121).

B1: TPR t1 (parent)
chain: GACCAAUCUGCCCUCAGAGCUCGAGAACAUCUUCGGAUGCAGAGGAGGCAGGCUUCGGUGGCGCGAUAGCGCCAACGUCCUCAACCUCCAAUGCAUCCCACCACAUGAUGAUGCCUGAAGAGCCUUGGUUUUUUG

Variants of: B1
Assay: polymerase ribozyme fitness, log enrichment relative to wild type (log ratio); higher = more active; in vitro selection for triplet polymerase activity
Procedure, shortened: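 Each subunit of a heterodimeric triplet polymerase ribozyme was mutagenized into a library by PCR, transcribed, and subjected to one round of in vitro selection, run in triplicate. Libraries were annealed with a biotinylated primer, the partner subunit and triplets, incubated frozen at −7 °C, and extended constructs were gel-excised, captured on streptavidin beads and recovered by RT-PCR. Input and output libraries were sequenced on Illumina, keeping genotypes with ≥10 input reads and ≥1 read per output. Fitness is log base 2 of genotype enrichment divided by wild-type enrichment, from inverse-variance-weighted replicate averages.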

Variant | polymerase ribozyme fitness (log ratio)
GACCAAUCUGCCCUUAGAGCUUGAGAACAUCUUCGGAUGCAGAGGAGGCAGGCUUCGGUGGCGCGAUAGCGUCAACGUCCUCAACCUCCAAUGCAUCCCACCACAUGAUGAUGCCUGAACAGCCUUGGUUUUUUG [C15U C22U C72U G120C] | -3.96
GACCAAUCUGCCCUUAGAGCUCGAGAACAUCUUCGGAUGCAGAGGAGGCAGGCUUCGGUGGCGCGAUAGCGCCAACGUCCUCAUCCACCAAUGCAUCCCACCACGUGAUGAUUCCUGAAGAGCCUUGGUUUUUUG [C15U A84U U87A A105G G113U] | -5.89
GACCAAUCUGCCCUUAGAGCUCGAGUACAUCUUCGGAUGCAGAGGAGGCAGGCUUCGGUGGCGCGAUAGCGCCAACGUCCUCAACCUCCAAUGCAUCCCACCACAUGAUGAUGCCUGAAGAGCCUUGGUUUUUUG [C15U A26U] | -5.06
GACCAAUCUGCCCUUAGAGCUCGAGAACAUCUUCGGAUGCAGGGGAGGCAGGCUUCUGUGGCGCGAUAGCGCCAACGUCCUCAAACUCCAAUUCAUCCCACCACAUGAUGAUGCCUGAACAGCCUUGGUUUUUUG [C15U A43G G57U C85A G93U G120C] | -4.37
GACCAAUCUGCCCUUAGAGCUCGAGAACAUCUUCGGAUGCUGAGGAGGCAGGCUUCGGUGGCGCGAUACCGCCAACGUCCUAAACCUCCAAUGCAUCCCACCACAUGAUGAAGCCUGAAGAGCAUUGGUUUUUUG [C15U A41U G69C C82A U112A C124A] | -3.69
GACCAAUCUGCCCUUAGAGCUCGAGAACAUCUUCGGAUGCAGAGGAGGCAGGCUUCGGUGGCGCGAUAGCGCCAACGUCCUCAACCUCCUAUGCAUCCCACCACAUGAUGAUGCCUGAAGAGCCUUGGUUUUUUG [C15U A90U] | -2.96
GACCAAUCUGCCCUUAGAGCUCGAGAACAUCUUCGGAUGCAGUGGAGGCAGGCUUCGGUGGCGCGAUAGCGCCAACGUCCUCACCCUCCAAUGCAUCCCACCACAUGAUGAUGCCUGAAGAGCCUUGGUUUUUUG [C15U A43U A84C] | -2.66
GACCAAUCUGCCCUUAGAGCUCGAGAACAUCUUCGGAUGCAGCGGAGGCAGGCUUCGGUGGCGCGAUAGCGCCAAUGUCCUCAACCUCCAAUGCAUCCCACCACAUGAUGAUGCCUGAAGAGCCUUGGUUUUUUG [C15U A43C C76U] | -3.95
GACCAAUCUGCCCUUAGAGCUCGAGAACAUCUUCGGAUGCAGAGGUGGCAGGCGUCGGUGGCGCGAUAGCGCCAACGUCCUCAACCUCCAAUGCAUCCCACCACAUGAUGAUGCCUGAAGAGACUUGGUUUUUUG [C15U A46U U54G C123A] | -1.74
GACCAAUCUGCCCUUAGAGUUCGAGAACAUCUUCGGAUGCAACGGAGGCAGGCUUCGGUGGCGCGAUAGCGCCAACGUCCUCAACCUCCAAUGCAUCCCACCACAUGAUGAUACCUGAAGAGCCUUGGUUUUUUG [C15U C20U G42A A43C G113A] | -1.99
GACCAAUCUGCCCUUAGAGCUCGAGAACAUCUUCGGGUGCAGAGGAGGCAGGGUUCGGUGGCGCGAUAGCGCCAACGUCCUCAACCUCCAAUGCAUCCCACCACAUGAUGAUGCCUGAAGAGCCUUGGCUUUUUG [C15U A37G C53G U129C] | -2.67
GACCAAUCUGCCCUUAGAGAUCGAGAACAUCUUCGGAUGCAAAGGAGGCAGGCUUCGGUGGCGCGAUAGCGCCAACGUCCUCAACCUCCAAUGCAUCCCACCACAUGAUGAUGCCUGAAGAGCAUUGGUCUUUUG [C15U C20A G42A C124A U130C] | -2.95
GACCAAUCUGCCCUUAGAGCUCGAGAACAUCUUCGGAUGCAGAGGAGGCAGGCUUCGGUGGCGCGAUAGCGCCCGCGUCCUCAACCUCCAAUGCAUCCCACCACAUGAUGAUGCAUGAAGAGCCUUGGUUUUUUG [C15U A74C A75G C115A] | -3.69
GACCAAUCUGCCCUUAGAGCUCGAGAACUUCUUCGGAUGCAGAGGAGGCAGGCUUCGGUGGCGCGAUAGCGCCAACGUCCUCAACCUCCAAUGCAUCCCACCACAUGAUGAUGCCUGAAGAGCCUUGGUUUUUUG [C15U A29U] | -3.13
GACCAAUCUGCCCUUCGAGCUCGAGAACAUCUUCGGAUGCAGAGGAGGCAGGCUUCGGUGGCGCGAUAGCGCCAACGUCCUCAACCUCCAAUCCAUCCCACCACAUGAUGAUGCCUGAAGAGUCUCGGUUUUUUG [C15U A16C G93C C123U U126C] | -2.73
GACCAAUCUGCCCUUAGAGGUCGAGAACAUCUUCGGAUGCAGAGGAGGCAAGCUUCGGUGGCGCGAUAGCGCCAACGUCCUCAACCUCCAAUGCAUCGCACCACAUGAAGAUGCCUGAAGAGCCUUGGUUUUUUG [C15U C20G G51A C98G U109A] | -2.04
GACCAAUCUGCCCUUAGUGCUCGAGAACAUAUUCGGAUUCAGAGGAGGCAGGCAUCGGUGGCGCGAUAGCGUCAACGUCCUCAACCUCCAAUGCAUCCCACCACAUGAUGAUGUGUGAAGAGCCUUGGUUUUUUG [C15U A18U C31A G39U U54A C72U C114U C115G] | -6.25
GACCAAUCUGCCCUUAGUGCUCGAGAACAUCUUCGGAUGCAGAGGAGGGAGGCUUCGGUGGCGCGAUAGCGACAACGUCCUCAACCUCCAACGCAUCCCACCACAUGAUGAUGCCUGAAGAGCCUUGGUUUUUUG [C15U A18U C49G C72A U92C] | -5.58
GACCAAUCUGCCCUUAGAGCUCGAGAACAUCUUCGGAUGCAGAGGAGGCUGGCUUCGGUGGCGCGAUAGCGCUAACGUCCUCAACCUCCAAUGCAUCCCACCACAUGAUGAUGCCUGUAGAGCCUUAGUUUUUUG [C15U A50U C73U A118U G127A] | -5.35
GACCAAUCUGCCCUUAGAGCUCGAGAACAUCUUCGGAUGCAGUGGAGACAGGCUUCGGUGGCGCGAUAGCGCCAACGUCCUCAACCUCCAAUGCAUCCCCCCACAUGAUGGUGCCUGAAGAGCCUUGGUUUUUUG [C15U A43U G48A A100C A111G] | -5.15
GACCAAUCUGCCCUUAGUGCUCGAGAACAUAUUCGGAUUCAGAGGAGGCAGGCAUCGGUGGCGCGAUAGUGCCAACGUCCUCAACCUCCAAUGCAUCCCACCACAUGAUGAUGUGUGAAGAGCCUUGGUUUUUUG [C15U A18U C31A G39U U54A C70U C114U C115G] | -5.12
